The values that follow come from patent publication US20110166062A1 (INDIANA UNIVERSITY RESEARCH AND TECHNOLOGY, published 2011).

Bridges are numbered along the chain shown (N, C = ends). Where no end group is shown, it is not given here. [ ]: non-standard residue; d: D form. Aib = CC(C)(N)C(=O)O

Experiment in all cases: cell-based or functional assay
In experiment [1] the target is glucagon receptor (UniProt P47871 26-477, limits assumed).
Experiment [2] addresses GLP-1 receptor (UniProt P43220 24-463, limits assumed).
In experiment [3] the target is T1, GIP receptor (UniProt P48546 22-466).
T1 sequence (looked up): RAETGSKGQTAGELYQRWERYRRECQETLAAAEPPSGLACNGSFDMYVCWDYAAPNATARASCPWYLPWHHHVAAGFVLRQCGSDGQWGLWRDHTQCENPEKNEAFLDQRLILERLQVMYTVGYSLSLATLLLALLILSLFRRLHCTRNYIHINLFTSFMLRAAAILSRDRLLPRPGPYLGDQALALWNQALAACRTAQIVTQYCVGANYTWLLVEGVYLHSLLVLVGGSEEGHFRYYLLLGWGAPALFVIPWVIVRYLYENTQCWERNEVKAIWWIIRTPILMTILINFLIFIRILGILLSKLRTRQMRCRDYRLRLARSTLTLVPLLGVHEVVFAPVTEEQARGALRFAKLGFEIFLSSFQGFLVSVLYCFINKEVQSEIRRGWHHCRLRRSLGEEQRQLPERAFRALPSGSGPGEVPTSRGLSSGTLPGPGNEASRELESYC

Chain of glucagon receptor (P47871 26-477 limits assumed): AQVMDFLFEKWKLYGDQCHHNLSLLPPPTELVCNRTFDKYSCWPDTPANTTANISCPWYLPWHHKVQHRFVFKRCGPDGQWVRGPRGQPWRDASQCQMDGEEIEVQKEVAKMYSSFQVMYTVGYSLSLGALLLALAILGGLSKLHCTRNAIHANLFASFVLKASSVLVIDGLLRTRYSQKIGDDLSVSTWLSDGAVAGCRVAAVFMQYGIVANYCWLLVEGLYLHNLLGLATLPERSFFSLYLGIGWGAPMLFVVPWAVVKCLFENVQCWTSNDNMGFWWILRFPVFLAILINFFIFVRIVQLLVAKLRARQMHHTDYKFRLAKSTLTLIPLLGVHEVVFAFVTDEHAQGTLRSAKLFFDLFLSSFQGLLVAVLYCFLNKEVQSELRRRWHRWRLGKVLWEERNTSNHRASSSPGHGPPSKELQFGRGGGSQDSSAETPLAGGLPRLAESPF

B1: mt-156 (peptide)
peptide: YSQGTFTSDYSIYLDEQAAKEFVEWLLAGGPSSGAPPPS-NH2
modifications: lactam 20-24; N-terminus assumed
SMILES: CC[C@H](C)[C@H](NC(=O)[C@H](CO)NC(=O)[C@H](Cc1ccc(O)cc1)NC(=O)[C@H](CC(=O)O)NC(=O)[C@H](CO)NC(=O)[C@@H](NC(=O)[C@H](Cc1ccccc1)NC(=O)[C@@H](NC(=O)CNC(=O)[C@H](CCC(N)=O)NC(=O)[C@H](CO)NC(=O)[C@@H](N)Cc1ccc(O)cc1)[C@@H](C)O)[C@@H](C)O)C(=O)N[C@@H](Cc1ccc(O)cc1)C(=O)N[C@@H](CC(C)C)C(=O)N[C@@H](CC(=O)O)C(=O)N[C@@H](CCC(=O)O)C(=O)N[C@@H](CCC(N)=O)C(=O)N[C@@H](C)C(=O)N[C@@H](C)C(=O)N[C@H]1CCCCNC(=O)CC[C@@H](C(=O)N[C@@H](Cc2c[nH]c3ccccc23)C(=O)N[C@@H](CC(C)C)C(=O)N[C@@H](CC(C)C)C(=O)N[C@@H](C)C(=O)NCC(=O)NCC(=O)N2CCC[C@H]2C(=O)N[C@@H](CO)C(=O)N[C@@H](CO)C(=O)NCC(=O)N[C@@H](C)C(=O)N2CCC[C@H]2C(=O)N2CCC[C@H]2C(=O)N2CCC[C@H]2C(=O)N[C@@H](CO)C(N)=O)NC(=O)[C@H](C(C)C)NC(=O)[C@H](Cc2ccccc2)NC(=O)[C@H](CCC(=O)O)NC1=O
Turning to B1, the entries for the “EC50” value in experiment [1], in experiment [2] and in experiment [3] were 2.96 nM, 0.246 nM and 0.919 nM, respectively. The relative activity turned out to be 6.1% in experiment [1], 12.2% in experiment [2] and 4.41% in experiment [3].

B2: mt-158 (peptide)
peptide: Y[Aib]QGTFTSDYSIYLDEQAAKEFVCWLLAGGPSSGAPPPS-NH2
modifications: lactam 16-20; N-terminus assumed
SMILES: CC[C@H](C)[C@H](NC(=O)[C@H](CO)NC(=O)[C@H](Cc1ccc(O)cc1)NC(=O)[C@H](CC(=O)O)NC(=O)[C@H](CO)NC(=O)[C@@H](NC(=O)[C@H](Cc1ccccc1)NC(=O)[C@@H](NC(=O)CNC(=O)[C@H](CCC(N)=O)NC(=O)C(C)(C)NC(=O)[C@@H](N)Cc1ccc(O)cc1)[C@@H](C)O)[C@@H](C)O)C(=O)N[C@@H](Cc1ccc(O)cc1)C(=O)N[C@@H](CC(C)C)C(=O)N[C@@H](CC(=O)O)C(=O)N[C@H]1CCC(=O)NCCCC[C@@H](C(=O)N[C@@H](CCC(=O)O)C(=O)N[C@@H](Cc2ccccc2)C(=O)N[C@H](C(=O)N[C@@H](CS)C(=O)N[C@@H](Cc2c[nH]c3ccccc23)C(=O)N[C@@H](CC(C)C)C(=O)N[C@@H](CC(C)C)C(=O)N[C@@H](C)C(=O)NCC(=O)NCC(=O)N2CCC[C@H]2C(=O)N[C@@H](CO)C(=O)N[C@@H](CO)C(=O)NCC(=O)N[C@@H](C)C(=O)N2CCC[C@H]2C(=O)N2CCC[C@H]2C(=O)N2CCC[C@H]2C(=O)N[C@@H](CO)C(N)=O)C(C)C)NC(=O)[C@H](C)NC(=O)[C@H](C)NC(=O)[C@H](CCC(N)=O)NC1=O
In the case of B2, the “EC50” value in experiment [1] is 1.05 nM; in experiment [2], 0.034 nM; in experiment [3] it was 0.174 nM. For the same molecule, the relative activity in experiment [1] worked out at 14.9%; in experiment [2] it was 103%; in experiment [3] it was 17.8%.

B3: mt-152 (peptide)
peptide: Y[Aib]QGTFTSDYSIYLDEQAAKEFVNWLLAGGPSSGAPPPS-NH2
modifications: lactam 16-20; N-terminus assumed
SMILES: CC[C@H](C)[C@H](NC(=O)[C@H](CO)NC(=O)[C@H](Cc1ccc(O)cc1)NC(=O)[C@H](CC(=O)O)NC(=O)[C@H](CO)NC(=O)[C@@H](NC(=O)[C@H](Cc1ccccc1)NC(=O)[C@@H](NC(=O)CNC(=O)[C@H](CCC(N)=O)NC(=O)C(C)(C)NC(=O)[C@@H](N)Cc1ccc(O)cc1)[C@@H](C)O)[C@@H](C)O)C(=O)N[C@@H](Cc1ccc(O)cc1)C(=O)N[C@@H](CC(C)C)C(=O)N[C@@H](CC(=O)O)C(=O)N[C@H]1CCC(=O)NCCCC[C@@H](C(=O)N[C@@H](CCC(=O)O)C(=O)N[C@@H](Cc2ccccc2)C(=O)N[C@H](C(=O)N[C@@H](CC(N)=O)C(=O)N[C@@H](Cc2c[nH]c3ccccc23)C(=O)N[C@@H](CC(C)C)C(=O)N[C@@H](CC(C)C)C(=O)N[C@@H](C)C(=O)NCC(=O)NCC(=O)N2CCC[C@H]2C(=O)N[C@@H](CO)C(=O)N[C@@H](CO)C(=O)NCC(=O)N[C@@H](C)C(=O)N2CCC[C@H]2C(=O)N2CCC[C@H]2C(=O)N2CCC[C@H]2C(=O)N[C@@H](CO)C(N)=O)C(C)C)NC(=O)[C@H](C)NC(=O)[C@H](C)NC(=O)[C@H](CCC(N)=O)NC1=O
Consider B3, for which the “EC50” value in experiment [1] is 0.293 nM; in experiment [2] it was 0.016 nM; in experiment [3], 0.087 nM. Also, the relative activity was found to be 36.5% in experiment [1], 169% in experiment [2] and 41.2% in experiment [3].

B4: mt-157 (peptide)
peptide: YSQGTFTSDYSIYLDEQAAKEFVEWLLKGGPSSGAPPPS-NH2
modifications: lactam 24-28; N-terminus assumed
SMILES: CC[C@H](C)[C@H](NC(=O)[C@H](CO)NC(=O)[C@H](Cc1ccc(O)cc1)NC(=O)[C@H](CC(=O)O)NC(=O)[C@H](CO)NC(=O)[C@@H](NC(=O)[C@H](Cc1ccccc1)NC(=O)[C@@H](NC(=O)CNC(=O)[C@H](CCC(N)=O)NC(=O)[C@H](CO)NC(=O)[C@@H](N)Cc1ccc(O)cc1)[C@@H](C)O)[C@@H](C)O)C(=O)N[C@@H](Cc1ccc(O)cc1)C(=O)N[C@@H](CC(C)C)C(=O)N[C@@H](CC(=O)O)C(=O)N[C@@H](CCC(=O)O)C(=O)N[C@@H](CCC(N)=O)C(=O)N[C@@H](C)C(=O)N[C@@H](C)C(=O)N[C@@H](CCCCN)C(=O)N[C@@H](CCC(=O)O)C(=O)N[C@@H](Cc1ccccc1)C(=O)N[C@H](C(=O)N[C@H]1CCC(=O)NCCCC[C@@H](C(=O)NCC(=O)NCC(=O)N2CCC[C@H]2C(=O)N[C@@H](CO)C(=O)N[C@@H](CO)C(=O)NCC(=O)N[C@@H](C)C(=O)N2CCC[C@H]2C(=O)N2CCC[C@H]2C(=O)N2CCC[C@H]2C(=O)N[C@@H](CO)C(N)=O)NC(=O)[C@H](CC(C)C)NC(=O)[C@H](CC(C)C)NC(=O)[C@H](Cc2c[nH]c3ccccc23)NC1=O)C(C)C
B4: the 50% effective concentration (EC50) in experiment [1] came out at 2.62 nM; in experiment [2] it was 0.081 nM; in experiment [3], 1.01 nM. Moreover, the relative activity in experiment [1] was determined as 6.92%; in experiment [2], 37%; in experiment [3], 4%.

As usually defined, the EC50 is the concentration needed to bring the measured effect to its halfway point.
